Measured values published in patent US20230235012A1 (ALPINE IMMUNE SCIENCES, published 2023).
Changes are numbered by the printed parent chain. Numbers in names are those of the source. One block for each binder: values may come before it.

Legend:
[1] = target: T1, human CD28 (human, UniProt P10747 19-220); assay: flow cytometry, transfected Expi293 cells
T1 construct: whole, on cells

[2] = target: T2, human ICOS (human, UniProt Q9Y6W8 21-199); assay: flow cytometry, transfected Expi293 cells
T2 construct: whole, on cells
T2 sequence (looked up): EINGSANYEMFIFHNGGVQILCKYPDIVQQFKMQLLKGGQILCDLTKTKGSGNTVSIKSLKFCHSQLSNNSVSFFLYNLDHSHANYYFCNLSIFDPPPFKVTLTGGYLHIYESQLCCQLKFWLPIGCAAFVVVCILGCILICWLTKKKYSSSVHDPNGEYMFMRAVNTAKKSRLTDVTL

[3] = target: T3, human CTLA-4 (human, UniProt P16410 36-223); assay: flow cytometry, transfected Expi293 cells
T3 construct: whole, on cells
T3 sequence (P16410 36-223): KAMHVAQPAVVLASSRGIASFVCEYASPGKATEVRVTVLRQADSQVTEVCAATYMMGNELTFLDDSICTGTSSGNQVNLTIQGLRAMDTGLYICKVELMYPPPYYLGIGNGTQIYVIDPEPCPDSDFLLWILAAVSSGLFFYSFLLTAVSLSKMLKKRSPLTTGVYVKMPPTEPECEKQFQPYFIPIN

[4] = target: T1, human CD28; assay: flow cytometry, transfected cells; protein from 293; also: test concentration or dose not given here
[5] = target: T2, human ICOS; assay: as above
[6] = target: T3, human CTLA-4; assay: as above
[7] = target: T1, human CD28; assay: flow cytometry, transfected cells; protein from CHO
[8] = target: T2, human ICOS; assay: as above
[9] = target: T3, human CTLA-4; assay: as above
[10] = target: T1, human CD28; assay: as above; remark: listed apart in the source
[11] = target: T2, human ICOS; assay: as above; remark: listed apart in the source
[12] = target: T3, human CTLA-4; assay: as above; remark: listed apart in the source

MFI [1]: 65500 MFI
MFI ratio to WT [1]: 12.5 fold
MFI [2]: 105000 MFI
MFI ratio to WT [2]: 1.3 fold
MFI [3]: 194000 MFI
MFI ratio to WT [3]: 20.6 fold
B2: ICOSL ECD N52H/N57Y/Q100R/F172S - AAA - Fc C220S/L234A/L235E/G237A (Fc fusion)
chain: DTQEKEVRAMVGSDVELSCACPEGSRFDLNDVYVYWQTSESKTVVTYHIPQHSSLEYVDSRYRNRALMSPAGMLRGDFSLRLFNVTPQDEQKFHCLVLSRSLGFQEVLSVEVTLHVAANFSVPVVSAPHSPSQDELTFTCTSINGYPRPNVYWINKTDNSLLDQALQNDTVSLNMRGLYDVVSVLRIARTPSVNIGCCIENVLLQQNLTVGSQTGNDIGERDKITENPVSTGEKNAATAAAEPKSSDKTHTCPPCPAPEAEGAPSVFLFPPKPKDTLMISRTPEVTCVVVDVSHEDPEVKFNWYVDGVEVHNAKTKPREEQYNSTYRVVSVLTVLHQDWLNGKEYKCKVSNKALPAPIEKTISKAKGQPREPQVYTLPPSREEMTKNQVSLTCLVKGFYPSDIAVEWESNGQPENNYKTTPPVLDSDGSFFLYSKLTVDKSRWQQGNVFSCSVMHEALHNHYTQKSLSLSPGK

MFI [2]: 97700 MFI
B8: ICOSL ECD N52H/N57Y/Q100P - no linker - Fc C220S/L234A/L235E/G237A (Fc fusion)
chain: DTQEKEVRAMVGSDVELSCACPEGSRFDLNDVYVYWQTSESKTVVTYHIPQHSSLEYVDSRYRNRALMSPAGMLRGDFSLRLFNVTPQDEQKFHCLVLSPSLGFQEVLSVEVTLHVAANFSVPVVSAPHSPSQDELTFTCTSINGYPRPNVYWINKTDNSLLDQALQNDTVFLNMRGLYDVVSVLRIARTPSVNIGCCIENVLLQQNLTVGSQTGNDIGERDKITENPVSTGEKNAATEPKSSDKTHTCPPCPAPEAEGAPSVFLFPPKPKDTLMISRTPEVTCVVVDVSHEDPEVKFNWYVDGVEVHNAKTKPREEQYNSTYRVVSVLTVLHQDWLNGKEYKCKVSNKALPAPIEKTISKAKGQPREPQVYTLPPSREEMTKNQVSLTCLVKGFYPSDIAVEWESNGQPENNYKTTPPVLDSDGSFFLYSKLTVDKSRWQQGNVFSCSVMHEALHNHYTQKSLSLSPGK
notes: direct fusion, linker 'none'

MFI [2]: 106000 MFI
B9: ICOSL ECD N52H/N57Y/Q100R/F172S - no linker - Fc C220S/L234A/L235E/G237A (Fc fusion)
chain: B8 chain with P100R, F172S
notes: direct fusion, linker 'none'

MFI [4]: 13700 MFI
MFI [5]: 16700 MFI
MFI [6]: 8720 MFI
MFI [7]: 12900 MFI
MFI [8]: 7700 MFI
MFI [9]: 8750 MFI
B10: ICOSL ECD with N52H/N57Y/Q100R/C198R linked to Fc C220S/L234A/L235E/G237A (Table 30D) (Fc fusion)
chain: B8 chain with P100R, C198R

MFI [10]: 86300 MFI
MFI ratio to WT [10]: 50 fold
MFI [11]: 110000 MFI
MFI ratio to WT [11]: 1.1 fold
MFI [12]: 216000 MFI
MFI ratio to WT [12]: 28.5 fold
B11: ICOSL ECD Truncation #5 with N52H/N57Y/Q100R/C198R, Fc fusion (Fc fusion)
chain: DTQEKEVRAMVGSDVELSCACPEGSRFDLNDVYVYWQTSESKTVVTYHIPQHSSLEYVDSRYRNRALMSPAGMLRGDFSLRLFNVTPQDEQKFHCLVLSRSLGFQEVLSVEVTLHVAANFSVPVVSAPHSPSQDELTFTCTSINGYPRPNVYWINKTDNSLLDQALQNDTVFLNMRGLYDVVSVLRIARTPSVNIGCRIENVLLQQGGGGSGGGGSEPKSSDKTHTCPPCPAPEAEGAPSVFLFPPKPKDTLMISRTPEVTCVVVDVSHEDPEVKFNWYVDGVEVHNAKTKPREEQYNSTYRVVSVLTVLHQDWLNGKEYKCKVSNKALPAPIEKTISKAKGQPREPQVYTLPPSREEMTKNQVSLTCLVKGFYPSDIAVEWESNGQPENNYKTTPPVLDSDGSFFLYSKLTVDKSRWQQGNVFSCSVMHEALHNHYTQKSLSLSPG
notes: not restated for the C198R set

Continued, binder first:

B1: ICOSL ECD N52H/N57Y/Q100P - AAA - Fc C220S/L234A/L235E/G237A (Fc fusion)
chain: B2 chain with R100P, S172F
MFI [1]: 68700 MFI
MFI ratio to WT [1]: 13.1 fold
MFI [2]: 97100 MFI
MFI ratio to WT [2]: 1.2 fold
MFI [3]: 171000 MFI
MFI ratio to WT [3]: 18.2 fold

B3: ICOSL ECD N52H/N57Y/Q100P - G4S - Fc C220S/E233P/L234V/L235A/G236del/S267K (Fc fusion)
chain: DTQEKEVRAMVGSDVELSCACPEGSRFDLNDVYVYWQTSESKTVVTYHIPQHSSLEYVDSRYRNRALMSPAGMLRGDFSLRLFNVTPQDEQKFHCLVLSPSLGFQEVLSVEVTLHVAANFSVPVVSAPHSPSQDELTFTCTSINGYPRPNVYWINKTDNSLLDQALQNDTVFLNMRGLYDVVSVLRIARTPSVNIGCCIENVLLQQNLTVGSQTGNDIGERDKITENPVSTGEKNAATGGGGSEPKSSDKTHTCPPCPAPPVAGPSVFLFPPKPKDTLMISRTPEVTCVVVDVKHEDPEVKFNWYVDGVEVHNAKTKPREEQYNSTYRVVSVLTVLHQDWLNGKEYKCKVSNKALPAPIEKTISKAKGQPREPQVYTLPPSREEMTKNQVSLTCLVKGFYPSDIAVEWESNGQPENNYKTTPPVLDSDGSFFLYSKLTVDKSRWQQGNVFSCSVMHEALHNHYTQKSLSLSPGK
MFI [2]: 93400 MFI
MFI [3]: 188000 MFI

B4: ICOSL ECD N52H/N57Y/Q100R/F172S - G4S - Fc C220S/L234A/L235E/G237A (Fc fusion)
chain: DTQEKEVRAMVGSDVELSCACPEGSRFDLNDVYVYWQTSESKTVVTYHIPQHSSLEYVDSRYRNRALMSPAGMLRGDFSLRLFNVTPQDEQKFHCLVLSRSLGFQEVLSVEVTLHVAANFSVPVVSAPHSPSQDELTFTCTSINGYPRPNVYWINKTDNSLLDQALQNDTVSLNMRGLYDVVSVLRIARTPSVNIGCCIENVLLQQNLTVGSQTGNDIGERDKITENPVSTGEKNAATGGGGSEPKSSDKTHTCPPCPAPEAEGAPSVFLFPPKPKDTLMISRTPEVTCVVVDVSHEDPEVKFNWYVDGVEVHNAKTKPREEQYNSTYRVVSVLTVLHQDWLNGKEYKCKVSNKALPAPIEKTISKAKGQPREPQVYTLPPSREEMTKNQVSLTCLVKGFYPSDIAVEWESNGQPENNYKTTPPVLDSDGSFFLYSKLTVDKSRWQQGNVFSCSVMHEALHNHYTQKSLSLSPGK
MFI [1]: 67600 MFI
MFI ratio to WT [1]: 12.9 fold
MFI [2]: 107000 MFI
MFI ratio to WT [2]: 1.4 fold
MFI [3]: 213000 MFI
MFI ratio to WT [3]: 22.7 fold

B5: ICOSL ECD N52H/N57Y/Q100P - G4S - Fc C220S/L234A/L235E/G237A (Fc fusion)
chain: B4 chain with R100P, S172F
MFI [1]: 69900 MFI
MFI ratio to WT [1]: 13.4 fold
MFI [2]: 104000 MFI
MFI ratio to WT [2]: 1.3 fold
MFI [3]: 161000 MFI
MFI ratio to WT [3]: 17.1 fold

B6: ICOSL ECD N52H/N57Y/Q100R/F172S - AAA - Fc C220S/E233P/L234V/L235A/G236del/S267K (Fc fusion)
chain: DTQEKEVRAMVGSDVELSCACPEGSRFDLNDVYVYWQTSESKTVVTYHIPQHSSLEYVDSRYRNRALMSPAGMLRGDFSLRLFNVTPQDEQKFHCLVLSRSLGFQEVLSVEVTLHVAANFSVPVVSAPHSPSQDELTFTCTSINGYPRPNVYWINKTDNSLLDQALQNDTVSLNMRGLYDVVSVLRIARTPSVNIGCCIENVLLQQNLTVGSQTGNDIGERDKITENPVSTGEKNAATAAAEPKSSDKTHTCPPCPAPPVAGPSVFLFPPKPKDTLMISRTPEVTCVVVDVKHEDPEVKFNWYVDGVEVHNAKTKPREEQYNSTYRVVSVLTVLHQDWLNGKEYKCKVSNKALPAPIEKTISKAKGQPREPQVYTLPPSREEMTKNQVSLTCLVKGFYPSDIAVEWESNGQPENNYKTTPPVLDSDGSFFLYSKLTVDKSRWQQGNVFSCSVMHEALHNHYTQKSLSLSPGK
MFI [1]: 57300 MFI
MFI ratio to WT [1]: 10.9 fold
MFI [2]: 104000 MFI
MFI ratio to WT [2]: 1.3 fold
MFI [3]: 193000 MFI
MFI ratio to WT [3]: 20.5 fold

B7: ICOSL ECD N52H/N57Y/Q100P - AAA - Fc C220S/E233P/L234V/L235A/G236del/S267K (Fc fusion)
chain: B6 chain with R100P, S172F
MFI [1]: 69600 MFI
MFI ratio to WT [1]: 13.3 fold
MFI [2]: 103000 MFI
MFI ratio to WT [2]: 1.3 fold
MFI [3]: 315000 MFI
MFI ratio to WT [3]: 33.5 fold

B12: ICOSL ECD N52H/N57Y/Q100P - no linker - Fc C220S/E233P/L234V/L235A/G236del/S267K (Fc fusion)
chain: DTQEKEVRAMVGSDVELSCACPEGSRFDLNDVYVYWQTSESKTVVTYHIPQHSSLEYVDSRYRNRALMSPAGMLRGDFSLRLFNVTPQDEQKFHCLVLSPSLGFQEVLSVEVTLHVAANFSVPVVSAPHSPSQDELTFTCTSINGYPRPNVYWINKTDNSLLDQALQNDTVFLNMRGLYDVVSVLRIARTPSVNIGCCIENVLLQQNLTVGSQTGNDIGERDKITENPVSTGEKNAATEPKSSDKTHTCPPCPAPPVAGPSVFLFPPKPKDTLMISRTPEVTCVVVDVKHEDPEVKFNWYVDGVEVHNAKTKPREEQYNSTYRVVSVLTVLHQDWLNGKEYKCKVSNKALPAPIEKTISKAKGQPREPQVYTLPPSREEMTKNQVSLTCLVKGFYPSDIAVEWESNGQPENNYKTTPPVLDSDGSFFLYSKLTVDKSRWQQGNVFSCSVMHEALHNHYTQKSLSLSPGK
notes: direct fusion, linker 'None'
MFI [2]: 98500 MFI
